Key:
[1] = test system: h6NE-GFPuvTEV (h6NE-GFPuv fusion with a TEV protease site between the AfFtn subunit and GFPuv) [GFP: P42212]
[2] = target: T1, AfFtn with truncated C-terminus and E65K, E128K, E131K, D138A, net positive interior [AfFtnΔC(+)] (Archaeoglobus fulgidus); assay: gel densitometry of purified protein fractions
T1 construct: 24 copies in the empty shell; about 23 copies where it surrounds one fusion subunit; also called tES(+)
T1 chain: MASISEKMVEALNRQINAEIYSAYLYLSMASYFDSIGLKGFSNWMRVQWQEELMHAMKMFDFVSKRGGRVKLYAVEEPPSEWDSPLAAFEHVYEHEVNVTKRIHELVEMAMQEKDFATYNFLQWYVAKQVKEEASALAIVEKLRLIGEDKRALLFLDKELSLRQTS

native GFPuv (un-fused) [3] = target: T2, native GFPuv (un-fused) (UniProt P42212 1-238 = GFP); assay: cell-free encapsulation by pH shift 5.8 to 8; GFPuv fluorescence and thermal shift
T2 construct: Any tag on the un-fused protein is not described
Method: (§1) FIGS. 18A-18D show effect of different molar ratios and charge of tES subunits on native GFPuv encapsulation in vitro. […] With increasing amount of GFPuv, denaturation temperature of tES(+)F116H increases. […] Negligible change in the denaturation temperature for 60:10 tES(−)F116H:GFPuv indicates unsuccessful encapsulation of GFPuv within tES(−)F116H as compared to tES(+)F116H. In 18A+ve control is tES:tES-GFPuv (0.5 μM); −ve control is GFPuv. In 18B+ve controls are tES(+)F116H:tES-GFPuv and tES(−)F116H:tES-GFPuv.
(§2) GFP, and HRPC and rLuc activities were determined through fluorescence, colorimetric and luminescence assays, respectively, both from cell lysate and purified proteins. For GFP, fluorescence of tES(+)F116H/tES-GFPuv, tES-GFPuv, and GFPuv was read at 508 nm in a 96-well black polystyrene plate (Fisher Scientific) with excitation wavelength fixed at 395 nm was performed or fluorescence read at 508 nm in a 96-well black polystyrene plate (Fisher Scientific) using supernatant from 10-mg bacterial pellet (induced at 0.8 OD and cultured for 24h). […] Absorbance was recorded at 450 nm. […] Following chromatographic purification, equimolar concentrations (500 nM) of purified h6NE-luciferase(+), h6NEluciferase(−), and h6NE-luciferase(+/−) were evaluated for luciferase activity using D-luciferin potassium salt as a substrate.

[4] = target: T3, native HRPC (un-fused horseradish peroxidase isoenzyme C) (horseradish, UniProt P00433 31-338); assay: cell-free encapsulation by pH shift 5.8 to 8; HRPC activity and thermal shift
T3 sequence (looked up): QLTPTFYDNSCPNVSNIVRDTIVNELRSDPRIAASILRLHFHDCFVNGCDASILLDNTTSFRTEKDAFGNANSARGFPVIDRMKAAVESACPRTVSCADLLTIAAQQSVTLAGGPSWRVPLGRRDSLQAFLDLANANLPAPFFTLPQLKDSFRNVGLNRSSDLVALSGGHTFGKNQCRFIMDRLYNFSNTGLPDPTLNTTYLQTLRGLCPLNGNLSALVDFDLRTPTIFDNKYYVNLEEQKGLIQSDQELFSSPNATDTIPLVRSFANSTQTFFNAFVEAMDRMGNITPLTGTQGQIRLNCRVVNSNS
Method: (§3) With increasing amount of HRPC, denaturation temperature of tES(+)F116H increases. […] Negligible change in the denaturation temperature for 60:10 tES(−)F116H:HRPC indicates unsuccessful encapsulation of HRPC within tES(−)F116H as compared to tES(+)F116H.
as §2, with “24h). The activity of tES(+)F116H/tES-HRPC, tES-HRPC, and HRPC was assayed using TMB substrate in a 96-well crystal-clear polystyrene plate (Greiner Bio-One). Briefly, fractions were incubated in assay buffer containing 25 mM Tris-HCl pH-8.0, 5 mM CaCl₂, 2.5 μM hemin for 5 mins.” for “24h).”

[5] = target: T4, native rLuc (un-fused Renilla luciferase) (Renilla reniformis, UniProt P27652 1-311); assay: cell-free encapsulation by pH shift 5.8 to 8; rLuc luminescence
T4 sequence (looked up): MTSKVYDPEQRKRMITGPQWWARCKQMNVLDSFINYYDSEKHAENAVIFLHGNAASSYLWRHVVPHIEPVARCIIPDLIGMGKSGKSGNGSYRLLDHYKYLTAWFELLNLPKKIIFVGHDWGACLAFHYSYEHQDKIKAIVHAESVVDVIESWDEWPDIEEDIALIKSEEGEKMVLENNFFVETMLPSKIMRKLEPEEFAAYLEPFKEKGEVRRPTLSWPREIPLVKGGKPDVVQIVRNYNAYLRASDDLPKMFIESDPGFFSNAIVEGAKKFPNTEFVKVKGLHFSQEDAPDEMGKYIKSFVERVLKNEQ
Method: The TMB substrate was added for color development and the reaction stopped using 2M H₂SO₄ after 5 mins. Absorbance was recorded at 450 nm. All luciferase reactions took place at ambient temperature (24-27° C.) in a 96-well plate with white interior and were performed at least in triplicates. Following chromatographic purification, equimolar concentrations (500 nM) of purified h6NE-luciferase(+), h6NEluciferase(−), and h6NE-luciferase(+/−) were evaluated for luciferase activity using D-luciferin potassium salt as a substrate. The reaction was initiated by injecting 50μl buffer containing D-luciferin potassium salt (final concentration 200 μM), 50 mM Tris-Cl pH 7.5, 10 mM MgCl₂, 2 mM EDTA, 100 μM ATP, 0.1% BSA, to a 50μl protein sample. Purified tES(+)F116H/tES-rLuc, tES-rLuc, and rLuc were evaluated using Renilla luciferase kit (Promega) with some modifications in the manufacturer's instructions. […] The signal was integrated for 1 min with a 2 s delay and luminescence was measured in Relative Light Units (RLU). […] The steady-state initial velocities, VO, (RLU/sec) for h6NE-luciferase(+/−) and recombinant luciferase were determined by initiating the reaction with different concentration of D-luciferin potassium salt. […] All readings were recorded on a Perkin Elmer Plate reader. […]

[6] = target: T3, native HRPC (un-fused horseradish …); assay: cell-free encapsulation by pH shift 5.8 to 8; SEC fractions' HRPC activity and thermal shift assay
Method: as §3
as §2, with “24h). The activity of tES(+)F116H/tES-HRPC, tES-HRPC, and HRPC was assayed using TMB substrate in a 96-well crystal-clear polystyrene plate (Greiner Bio-One). Briefly, fractions were incubated in assay buffer containing 25 mM Tris-HCl pH-8.0, 5 mM CaCl₂, 2.5 μM hemin for 5 mins.” for “24h).”

native GFPuv (un-fused) [7] = target: T2, native GFPuv (un-fused); assay: cell-free encapsulation by pH shift 5.8 to 8; thermal shift assay
Method: as §1
Inclusion body purification protocol is same as herein described. […] Fractions around the eluted peak were collected and their activity analyzed to identify fractions containing the POI.

For TEVprotease (Sigma), which “TEV protease cleavage, Western blot” value [1] is on record?
Its value is “the protease cleaved h6NE-GFPuvTEV”.

B1: tES-rLuc (His-tagged AfFtn subunit with truncated C-terminus fused to Renilla luciferase) (other)
chain: MASISEKMVEALNRQINAEIYSAYLYLSMASYFDSIGLKGFSNWMRVQWQEELMHAMKMFDFVSERGGRVKLYAVEEPPSEWDSPLAAFEHVYEHEVNVTKRIHELVEMAMQEKDFATYNFLQWYVAEQVEEEASALDIVEKLRLIGEDKRALLFLDKELSLRQTS
notes: also called tES-rLuc fusion subunit; not shown: N-terminal His-tag from pBAD/HisB; Renilla luciferase (rLuc), a 36 kDa protein from sea pansy, Renilla reniformis
With B1 as the molecule, how does the “ratio of fusion subunit to encapsulating tES subunits” value [2] read?
The value was 20 tES subunits per fusion subunit.

B2: tES(+)F116H (other)
chain: MASISEKMVEALNRQINAEIYSAYLYLSMASYFDSIGLKGFSNWMRVQWQEELMHAMKMFDFVSKRGGRVKLYAVEEPPSEWDSPLAAFEHVYEHEVNVTKRIHELVEMAMQEKDHATYNFLQWYVAKQVKEEASALAIVEKLRLIGEDKRALLFLDKELSLRQTS
notes: also called F116HAfFtnΔC(+); AfFtn net positive variant subunit with truncation of unstructured C-terminus and F116H mutation
What does the source list for B2?
binding result (native GFPuv (un-fused) [3]): binds; binding result [4]: binds; binding result [5]: binds

B3: tES(-)F116H (other)
chain: MASISEKMVEALNRQINAEIYSAYLYLSMASYFDSIGLKGFSNWMRVQWQEELMHAMKMFDFVSERGGRVKLYAVEEPPSEWDSPLAAFEHVYEHEVNVTKRIHELVEMAMQEKDHATYNFLQWYVAEQVEEEASALDIVEKLRLIGEDKRALLFLDKELSLRQTS
notes: also called AfFtn subunit with truncation of unstructured C-terminus and F116H mutation
Does B3 bind [6]?
Result: no binding (tested: molar ratios of 60:8 and 60:10)

Does B3 bind (native GFPuv (un-fused) [7])?
Result: no binding (tested: 60:10 molar ratio)

B4: h6NE-HRPC (His-tagged AfFtn subunit with truncated C-terminus fused to horseradish peroxidase isoenzyme C, C-terminal c-Myc epitope) (other)
chain: MASISEKMVEALNRQINAEIYSAYLYLSMASYFDSIGLKGFSNWMRVQWQEELMHAMKMFDFVSERGGRVKLYAVEEPPSEWDSPLAAFEHVYEHEVNVTKRIHELVEMAMQEKDFATYNFLQWYVAEQVEEEASALDIVEKLRLIGEDKRALLFLDKELSLRQTSQLTPTFYDNSCPNVSNIVRDTIVNELRSDPRIAASILRLHFHDCFVNGCDASILLDNTTSFRTEKDAFGNANSARGFPVIDRMKAAVESACPRTVSCADLLTIAAQQSVTLAGGPSWRVPLGRRDSLQAFLDLANANLPAPFFTLPQLKDSFRNVGLNRSSDLVALSGGHTFGKNQCRFIMDRLYNFSNTGLPDPTLNTTYLQTLRGLCPLNGNLSALVDFDLRTPTIFDNKYYVNLEEQKGLIQSDQELFSSPNATDTIPLVRSFANSTQTFFNAFVEAMDRMGNITPLTGTQGQIRLNCRVVNSNS
notes: also called tES-HRPC; tES-HRP; not shown: N-terminal His-tag from pBAD/HisB
With B4 as the molecule, how does the “ratio of fusion subunit to encapsulating tES subunits” value [2] read?
Its value is 19 tES subunits per fusion subunit.

Source: US20210113484A1 (NATIONAL UNIVERSITY OF SINGAPORE, published 2021)
